The results in this text go back to paper PMC5526998, “Structural analysis of the regulatory mechanism of MarR protein Rv2887 in M. tuberculosis” (Scientific Reports, 2017).

Data set [1] deals with T1, Rv2887 (MarR family regulator) (Mycobacterium tuberculosis H37Rv) (UniProt P9WME9).
T1 sequence: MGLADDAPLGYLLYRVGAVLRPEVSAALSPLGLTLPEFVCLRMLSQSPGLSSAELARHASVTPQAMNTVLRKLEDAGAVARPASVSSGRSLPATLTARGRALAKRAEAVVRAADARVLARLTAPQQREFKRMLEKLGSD
Put plainly: DNase I footprinting.

The target of data set [2] is T1, Rv2887 (MarR family regulator) (Mycobacterium tuberculosis H37Rv). Put plainly: EMSA. (Mobility shift assays separate free from complexed probe on a gel.)
The target in data set [3] is T2, Rv2887 (crystal with DNA) (Mycobacterium tuberculosis H37Rv, UniProt P9WME9 1-139).
T2 sequence: T1 sequence
Briefly: X-ray crystal structure (2.5 A). Conditions: protein: recombinant; tags: N-terminal 6xHis (pET-28a); chain copies: 4; blunt.

In the case of “CGAACTCAAGATCCAGCGATTCAGTCATGTGTTCATATATATCAACGGCCCTGATATATGTCAACACAGTTGACATTCGCGCACCCTTGGTTGCCGGCCGTCAGCTGAACGGCGGTCGTCGATCGACGAGCCGGGACAATTGACCGCCACCGCGCCACACCCGCGCCACCCAGTCGCGGTCGTCGTCGGTGACCAGATTGGACATCACCCGCACGGCGATGTTCATCAATGCGGTGGAGCGCATCGTGATGGGC (double strand) [Rv0560c upstream probe (6-FAM)]”, in data set [1], the binding entry was “binds”.

Turning to “CGAACTCAAGATCCAGCGATTCAGTCATGTGTTCATATATATCAACGGCCCTGATATATGTCAACACAGTTGACATTCGCGCACCCTTGGTTGCCGGCCGTCAGCTGAACGGCGGTCGTCGATCGACGAGCCGGGACAATTGACCGCCACCGCGCCACACCCGCGCCACCCAGTCGCGGTCGTCGTCGGTGACCAGATTGGACATCACCCGCACGGCGATGTTCATCAATGCGGTGGAGCGCATCGTGATGGGC (double strand) [Rv0560c upstream probe (biotin)]”, in data set [2], the binding result is listed as “binds”.

B1: 30 bp Rv0560c operator duplex (dsDNA)
DNA 1: CGATCGACGACCGCCGTTCAGCTGACGTCG
DNA 2: CGACGTCAGCTGAACGGCGGTCGTCGATCG
In the case of B1, the binding result in data set [3] was “binds”.
